Results: patent US20220380739

What was measured:
Abz-VDVADRA-Dap (Dnp) = molecular target: T1, Abz-VDVADRA-Dap (Dnp)
T1 chain: VDVADRA

Abz-VDVADMA-Dap (Dnp) = molecular target: T2, Abz-VDVADMA-Dap (Dnp)
T2 chain: VDVADMA

Abz-VDVADTA-Dap (Dnp) = molecular target: T3, Abz-VDVADTA-Dap (Dnp)
T3 chain: VDVADTA

Abz-VDVADDA-Dap (Dnp) = molecular target: T4, Abz-VDVADDA-Dap (Dnp)
T4 chain: VDVADDA

Abz-VDVADVA-Dap (Dnp) = molecular target: T5, Abz-VDVADVA-Dap (Dnp)
T5 chain: VDVADVA

Abz-VDVADIA-Dap (Dnp) = molecular target: T6, Abz-VDVADIA-Dap (Dnp)
T6 chain: VDVADIA

Abz-VDVADGA-Dap (Dnp) = molecular target: T7, Abz-VDVADGA-Dap (Dnp)
T7 chain: VDVADGA

Abz-VDVADQA-Dap (Dnp) = molecular target: T8, Abz-VDVADQA-Dap (Dnp)
T8 chain: VDVADQA

Abz-VDVADNA-Dap (Dnp) = molecular target: T9, Abz-VDVADNA-Dap (Dnp)
T9 chain: VDVADNA

Abz-VDVADWA-Dap (Dnp) = molecular target: T10, Abz-VDVADWA-Dap (Dnp)
T10 chain: VDVADWA

Abz-VDVADYA-Dap (Dnp) = molecular target: T11, Abz-VDVADYA-Dap (Dnp)
T11 chain: VDVADYA

Abz-VDVADSA-Dap (Dnp) = molecular target: T12, Abz-VDVADSA-Dap (Dnp)
T12 chain: VDVADSA

Abz-VDVADKA-Dap (Dnp) = molecular target: T13, Abz-VDVADKA-Dap (Dnp)
T13 chain: VDVADKA

Abz-VDVADHA-Dap (Dnp) = molecular target: T14, Abz-VDVADHA-Dap (Dnp)
T14 chain: VDVADHA

Abz-VDVADAA-Dap (Dnp) = molecular target: T15, Abz-VDVADAA-Dap (Dnp)
T15 chain: VDVADAA

Abz-VDVADEA-Dap (Dnp) = molecular target: T16, Abz-VDVADEA-Dap (Dnp)
T16 chain: VDVADEA

Abz-VDVADLA-Dap (Dnp) = molecular target: T17, Abz-VDVADLA-Dap (Dnp)
T17 chain: VDVADLA

Abz-VDVADPA-Dap (Dnp) = molecular target: T18, Abz-VDVADPA-Dap (Dnp)
T18 chain: VDVADPA

Abz-VDVADFA-Dap (Dnp) = molecular target: T19, Abz-VDVADFA-Dap (Dnp)
T19 chain: VDVADFA

[1] = molecular target: T7AC_6H_GSGSGSG_VDVAD-hFGF2

B1: T7AC_6H_mS9ProD (protein)
chain: MLEDPERNKERKEAELQAQTAEQHHHHHHGKNHAGSPGCEESAAGKEKLPKMRLPTRSDMICGYACLKGTAAMRNTKRGSWYIEALAQVFSERACDMHVADMLVKVNALIKDREGYAPGTEFHRCKVMSEYCSTLCRHLYLFPGHPPTGSGPVCLQVKPCTPEFYQTHFQLAYRLQSRPRGLALVLSNVHFTDEKELEFRSGGDVDHSTLVTLFKLLGYDVHVLCDQTAQEMQEKLQNFAQLPAHRGTDSCIVALLSHGVEGAIYGVDGKLLQLQEVFQLFDNANCPSLQNKPKMFFIQACRGEETDRGVDQQD
KM (Abz-VDVADRA-Dap (Dnp)): 47 µM | KM (Abz-VDVADMA-Dap (Dnp)): 480 µM | KM (Abz-VDVADTA-Dap (Dnp)): 120 µM | KM (Abz-VDVADDA-Dap (Dnp)): 190 µM | KM (Abz-VDVADVA-Dap (Dnp)): 100 µM | KM (Abz-VDVADIA-Dap (Dnp)): 110 µM | KM (Abz-VDVADGA-Dap (Dnp)): 65 µM | KM (Abz-VDVADQA-Dap (Dnp)): 120 µM | KM (T7AC-6H-GSG-VDVAD-hFGF-2): 329 µM | KM (T7AC_6H_GSG_VDSAD-hFGF2): 865 µM | KM (Abz-VDVADNA-Dap (Dnp)): 130 µM | KM (Abz-VDVADWA-Dap (Dnp)): 53 µM | KM (Abz-VDVADYA-Dap (Dnp)): 900 µM | KM (Abz-VDVADSA-Dap (Dnp)): 180 µM | KM (Abz-VDVADKA-Dap (Dnp)): 79 µM | KM (Abz-VDVADHA-Dap (Dnp)): 170 µM | KM (Abz-VDVADAA-Dap (Dnp)): 100 µM | KM (Abz-VDVADEA-Dap (Dnp)): 160 µM | KM (Abz-VDVADLA-Dap (Dnp)): 400 µM | KM (Abz-VDVADPA-Dap (Dnp)): 100 µM | KM (Abz-VDVADFA-Dap (Dnp)): 120 µM | KM (T7AC-6H-VDVAD-hFGF2): 529 µM | KM [1]: 252 µM
